Results on seven molecules are retold here after paper PMC3695512, “Recognition of two distinct elements in the RNA substrate by the RNA-binding domain of the T. thermophilus DEAD box helicase Hera”.

For data set [1], the target named is T1, Hera_RBD (Thermus thermophilus, UniProt O07897 424-510).
T1 sequence: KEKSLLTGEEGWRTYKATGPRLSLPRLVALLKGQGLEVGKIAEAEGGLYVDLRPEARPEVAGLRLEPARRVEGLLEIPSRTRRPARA
The data set can be described thus: NMR; pH 6.0, 50 mM NaCl, 37 C; Anisotropy: 50 mM Tris/HCl pH 7.5, 150 mM NaCl, 5 mM MgCl2 (Fig 2), 25 C, 50 nM RNA; EMSA: same Tris/NaCl, 12% glycerol, 25 C; NMR: 25 mM Bis-Tris/HCl pH 6.0, 50 mM NaCl, 10% D2O, 37 C. Conditions: protein: recombinant.

Data set [2] has as its target T1, Hera_RBD. The data set can be described thus: NMR; CSP pattern similar to 21mer; Anisotropy: 50 mM Tris/HCl pH 7.5, 150 mM NaCl, 5 mM MgCl2 (Fig 2), 25 C, 50 nM RNA; EMSA: same Tris/NaCl, 12% glycerol, 25 C; NMR: 25 mM Bis-Tris/HCl pH 6.0, 50 mM NaCl, 10% D2O, 37 C. Conditions: protein: recombinant; hairpin with 5' single strand. On the technique in general: In EMSA bound probe runs differently from free probe, usually more slowly.

In data set [3] the target is T1, Hera_RBD. The data set can be described thus: NMR; Kd1, RBD core resonances (424-493); Anisotropy: 50 mM Tris/HCl pH 7.5, 150 mM NaCl, 5 mM MgCl2 (Fig 2), 25 C, 50 nM RNA; EMSA: same Tris/NaCl, 12% glycerol, 25 C; NMR: 25 mM Bis-Tris/HCl pH 6.0, 50 mM NaCl, 10% D2O, 37 C. Conditions: protein: recombinant; hairpin with 5' single strand.
A further data set concerns the target T2, Hera full-length (Thermus thermophilus, UniProt O07897 1-510).
T2 sequence: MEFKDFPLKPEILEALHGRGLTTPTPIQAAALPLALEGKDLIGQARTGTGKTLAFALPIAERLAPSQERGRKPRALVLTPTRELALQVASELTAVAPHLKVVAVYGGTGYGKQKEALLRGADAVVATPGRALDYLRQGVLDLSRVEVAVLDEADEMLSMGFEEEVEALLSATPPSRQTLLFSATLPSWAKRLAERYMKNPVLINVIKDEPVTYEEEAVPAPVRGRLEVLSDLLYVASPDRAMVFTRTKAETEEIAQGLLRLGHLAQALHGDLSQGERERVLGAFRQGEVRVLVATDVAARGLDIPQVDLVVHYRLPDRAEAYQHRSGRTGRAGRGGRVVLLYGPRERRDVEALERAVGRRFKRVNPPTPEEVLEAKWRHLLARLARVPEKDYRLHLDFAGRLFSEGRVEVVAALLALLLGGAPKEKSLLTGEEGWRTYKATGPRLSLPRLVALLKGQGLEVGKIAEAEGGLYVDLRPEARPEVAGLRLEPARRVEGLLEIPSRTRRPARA
The data set can be described thus: fluorescence anisotropy; 1 uM Hera; complex forms instantaneously; Anisotropy: 50 mM Tris/HCl pH 7.5, 150 mM NaCl, 5 mM MgCl2 (Fig 2), 25 C, 50 nM RNA; EMSA: same Tris/NaCl, 12% glycerol, 25 C; NMR: 25 mM Bis-Tris/HCl pH 6.0, 50 mM NaCl, 10% D2O, 37 C. Conditions: protein: recombinant; chain copies: 2; label: 3'-fluorescein on 9mer; 9 bp duplex (strand 1 nt 3-11) plus 3' hairpin; 5' overhang 2 nt. In general terms: Polarisation of emitted light reports the rotation of a fluorescent probe.

For data set [4], the target named is T1, Hera_RBD. Put plainly: NMR; core CSPs, none in C-tail; Anisotropy: 50 mM Tris/HCl pH 7.5, 150 mM NaCl, 5 mM MgCl2 (Fig 2), 25 C, 50 nM RNA; EMSA: same Tris/NaCl, 12% glycerol, 25 C; NMR: 25 mM Bis-Tris/HCl pH 6.0, 50 mM NaCl, 10% D2O, 37 C. Conditions: protein: recombinant.
Another data set deals with T3, GST-Hera_RBD (Thermus thermophilus, UniProt O07897 424-510).
T3 sequence: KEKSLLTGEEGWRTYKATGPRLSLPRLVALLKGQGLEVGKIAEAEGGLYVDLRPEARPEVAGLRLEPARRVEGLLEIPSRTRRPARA
The data set can be described thus: EMSA; 6 uM RNA; 12% glycerol; Anisotropy: 50 mM Tris/HCl pH 7.5, 150 mM NaCl, 5 mM MgCl2 (Fig 2), 25 C, 50 nM RNA; EMSA: same Tris/NaCl, 12% glycerol, 25 C; NMR: 25 mM Bis-Tris/HCl pH 6.0, 50 mM NaCl, 10% D2O, 37 C. Particulars: protein: recombinant; tags: N-terminal GST; label: none (NMR, ITC); 5'-fluorescein (EMSA); hairpin with 5' single strand.

The target in data set [5] is T1, Hera_RBD. The data set can be described thus: ITC; 5 mM Mg2+; estimate, no initial baseline; Anisotropy: 50 mM Tris/HCl pH 7.5, 150 mM NaCl, 5 mM MgCl2 (Fig 2), 25 C, 50 nM RNA; EMSA: same Tris/NaCl, 12% glycerol, 25 C; NMR: 25 mM Bis-Tris/HCl pH 6.0, 50 mM NaCl, 10% D2O, 37 C. Conditions: protein: recombinant; label: none (NMR, ITC); 5'-fluorescein (EMSA); hairpin with 5' single strand.

Another data set deals with T4, Hera_RBD_dC-tail (Thermus thermophilus, UniProt O07897 424-491, del492-510).
T4 sequence: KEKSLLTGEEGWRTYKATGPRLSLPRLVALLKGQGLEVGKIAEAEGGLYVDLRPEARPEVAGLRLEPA
The data set can be described thus: fluorescence anisotropy; Anisotropy: 50 mM Tris/HCl pH 7.5, 150 mM NaCl, 5 mM MgCl2 (Fig 2), 25 C, 50 nM RNA; EMSA: same Tris/NaCl, 12% glycerol, 25 C; NMR: 25 mM Bis-Tris/HCl pH 6.0, 50 mM NaCl, 10% D2O, 37 C. Conditions: protein: recombinant; label: 5'-fluorescein.

For data set [6], the target named is T1, Hera_RBD. Described as above. Particulars: protein: recombinant; label: 5'-fluorescein.

B1: 19mer (structured_RNA)
RNA: GUUGGGCUGUUCGCCCAUU
B1: the Kd in the data set with Hera_RBD [1] (hairpin) is ~75 µM.

B2: 21mer_modloop (structured_RNA)
RNA: GGGUUGGGCUAUUCGCCCAUU
For the molecule B2, in the data set with Hera_RBD [2], the binding result is on record as “binds”.

B3: 21mer_mod (structured_RNA)
RNA: CACUUGGGCUGUUCGCCCAUU
On to B3, for which the Kd with Hera_RBD [3] was ~52.9 µM.

B4: 32/9mer (mixed)
RNA 1: GCAGGUCCCAAGGGUUGGGCUGUUCGCCCAUU
RNA 2: UUGGGACCU
With B4, the binding result with Hera full-length was “binds”.

B5: 5mer (ssRNA)
RNA: GGGCC
Take B5: in the data set with Hera_RBD [4], the binding result is recorded as “binds”.

B6: 21mer (structured_RNA)
RNA: GGGUUGGGCUGUUCGCCCAUU
With B6, the Kd with GST-Hera_RBD is ~23 µM; with Hera_RBD [1] (label: none (NMR, ITC), 5'-fluorescein (EMSA), hairpin with 5' single strand) it was ~6 µM; in the data set with Hera_RBD [5], ~40 µM.

B7: 4mer (ssRNA)
RNA: GGGC
On to B7, for which the Kd with Hera_RBD_dC-tail was 8 µM; in the data set with Hera_RBD [6], 11 µM.

For orientation: Kd means the equilibrium constant for the complex coming apart.
